According to patent US20120039802A1 (published 2012):

These binders were tested against T1, cMet-Fc fusion protein (extracellular domain of the cMet receptor expressed as an Fc-fusion protein) (human, UniProt P08581 25-932) (assay: phage ELISA, cMet-Fc vs TRAIL-Fc).
T1 construct: extracellular domain; also called soluble cMet-Fc-fusion protein; soluble cMet receptor; not shown: Fc part
In short: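 Specificity check: phage displaying peptides incubated 2 h at room temperature on wells coated with 0.5 μg/mL cMet-Fc versus TRAIL-Fc, after blocking with 3% BSA/PBST. HRP-anti-M13 antibody detected binding phage.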

T1 sequence (P08581 25-932): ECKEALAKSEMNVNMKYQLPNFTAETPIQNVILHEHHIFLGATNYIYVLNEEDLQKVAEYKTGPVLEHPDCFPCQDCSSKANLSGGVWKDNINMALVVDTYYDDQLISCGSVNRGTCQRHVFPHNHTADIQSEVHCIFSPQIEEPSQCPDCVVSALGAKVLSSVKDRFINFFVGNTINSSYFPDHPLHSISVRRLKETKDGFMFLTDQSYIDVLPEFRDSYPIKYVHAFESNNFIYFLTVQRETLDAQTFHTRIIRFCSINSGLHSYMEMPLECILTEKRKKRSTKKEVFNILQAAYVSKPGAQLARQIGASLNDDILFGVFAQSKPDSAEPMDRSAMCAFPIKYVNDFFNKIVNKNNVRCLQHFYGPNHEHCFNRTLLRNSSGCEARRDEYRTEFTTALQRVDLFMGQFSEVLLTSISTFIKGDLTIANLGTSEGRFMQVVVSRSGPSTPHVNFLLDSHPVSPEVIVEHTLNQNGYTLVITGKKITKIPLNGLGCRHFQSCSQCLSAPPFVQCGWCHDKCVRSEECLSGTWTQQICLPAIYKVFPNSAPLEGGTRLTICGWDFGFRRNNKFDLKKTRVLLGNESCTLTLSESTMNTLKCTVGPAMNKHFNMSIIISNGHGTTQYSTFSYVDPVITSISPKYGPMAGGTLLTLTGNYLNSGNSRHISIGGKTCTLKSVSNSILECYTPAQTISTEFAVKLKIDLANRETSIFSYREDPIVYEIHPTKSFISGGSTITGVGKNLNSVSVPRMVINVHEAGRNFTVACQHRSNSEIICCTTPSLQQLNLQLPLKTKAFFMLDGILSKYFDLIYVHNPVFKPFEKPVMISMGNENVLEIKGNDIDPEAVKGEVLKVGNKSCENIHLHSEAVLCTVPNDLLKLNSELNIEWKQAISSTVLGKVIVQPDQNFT

| Binder | Protein ELISA (fold over background) [fold] |
| --- | --- |
| GSFTACNKTSTTRQPCNPYAP [451-B12 peptide-displaying phage (SEQ ID NO: 384)] | 3.1 |
| GSRFHCWQGDLMQTYCMPMAP [452-A03 peptide-displaying phage (SEQ ID NO: 376)] | 3 |
| GDLLVCKFDDKFWTETCEWADP [549-G05 peptide-displaying phage (SEQ ID NO: 392)] | 23.7 |
| GSGDPCSPGPSINGHCSVMAP [453-A05 peptide-displaying phage (SEQ ID NO: 382)] | 4.5 |
| AGGFACGPPWDICWMFGT [573-F04 peptide-displaying phage (SEQ ID NO: 011)] | 5.6 |
| GDDFHCEFIDDYQSEICYFNDP [333-C03 peptide-displaying phage (SEQ ID NO: 391)] | 12.4 |
| GDLLGCGYQEKGGEYKCRFNDP [334-F05 peptide-displaying phage (SEQ ID NO: 395)] | 13.5 |
| GSQNNCEYGSRGSSFCLAMAP [465-C06 peptide-displaying phage (SEQ ID NO: 377)] | 6.4 |
| GSSQICAVYLDDTHNCERHAP [465-A03 peptide-displaying phage (SEQ ID NO: 373)] | 4 |
| GSMNMCDTTDEISPTCHPSAP [441-H01 peptide-displaying phage (SEQ ID NO: 378)] | 3.6 |
| GDSYNCSWDSKTFEVTCLYADP [546-B01 peptide-displaying phage (SEQ ID NO: 393)] | 8.4 |
| GSLYRCLGEASPTPPCAYEAP [445-G12 peptide-displaying phage (SEQ ID NO: 380)] | 4 |
| GSTMSCWRWGRDAYSCNQMAP [557-A12 peptide-displaying phage (SEQ ID NO: 372)] | 4.6 |

These binders were tested against T2, human cMet expressed on 3T3 cells (human, UniProt P08581 25-1390) (assay: whole cell phage ELISA, 3T3 human cMet vs 3T3).
T2 construct: whole, on cells; cells fixed with glutaraldehyde; also called cell surface-expressed human cMet; 3T3 cells that over-express human cMet
In short: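 Bound phage was detected with an HRP-conjugated anti-M13 antibody after PBST washes. The cells were cMet-over-expressing 3T3, read against plain 3T3.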

T2 sequence (P08581 25-1390): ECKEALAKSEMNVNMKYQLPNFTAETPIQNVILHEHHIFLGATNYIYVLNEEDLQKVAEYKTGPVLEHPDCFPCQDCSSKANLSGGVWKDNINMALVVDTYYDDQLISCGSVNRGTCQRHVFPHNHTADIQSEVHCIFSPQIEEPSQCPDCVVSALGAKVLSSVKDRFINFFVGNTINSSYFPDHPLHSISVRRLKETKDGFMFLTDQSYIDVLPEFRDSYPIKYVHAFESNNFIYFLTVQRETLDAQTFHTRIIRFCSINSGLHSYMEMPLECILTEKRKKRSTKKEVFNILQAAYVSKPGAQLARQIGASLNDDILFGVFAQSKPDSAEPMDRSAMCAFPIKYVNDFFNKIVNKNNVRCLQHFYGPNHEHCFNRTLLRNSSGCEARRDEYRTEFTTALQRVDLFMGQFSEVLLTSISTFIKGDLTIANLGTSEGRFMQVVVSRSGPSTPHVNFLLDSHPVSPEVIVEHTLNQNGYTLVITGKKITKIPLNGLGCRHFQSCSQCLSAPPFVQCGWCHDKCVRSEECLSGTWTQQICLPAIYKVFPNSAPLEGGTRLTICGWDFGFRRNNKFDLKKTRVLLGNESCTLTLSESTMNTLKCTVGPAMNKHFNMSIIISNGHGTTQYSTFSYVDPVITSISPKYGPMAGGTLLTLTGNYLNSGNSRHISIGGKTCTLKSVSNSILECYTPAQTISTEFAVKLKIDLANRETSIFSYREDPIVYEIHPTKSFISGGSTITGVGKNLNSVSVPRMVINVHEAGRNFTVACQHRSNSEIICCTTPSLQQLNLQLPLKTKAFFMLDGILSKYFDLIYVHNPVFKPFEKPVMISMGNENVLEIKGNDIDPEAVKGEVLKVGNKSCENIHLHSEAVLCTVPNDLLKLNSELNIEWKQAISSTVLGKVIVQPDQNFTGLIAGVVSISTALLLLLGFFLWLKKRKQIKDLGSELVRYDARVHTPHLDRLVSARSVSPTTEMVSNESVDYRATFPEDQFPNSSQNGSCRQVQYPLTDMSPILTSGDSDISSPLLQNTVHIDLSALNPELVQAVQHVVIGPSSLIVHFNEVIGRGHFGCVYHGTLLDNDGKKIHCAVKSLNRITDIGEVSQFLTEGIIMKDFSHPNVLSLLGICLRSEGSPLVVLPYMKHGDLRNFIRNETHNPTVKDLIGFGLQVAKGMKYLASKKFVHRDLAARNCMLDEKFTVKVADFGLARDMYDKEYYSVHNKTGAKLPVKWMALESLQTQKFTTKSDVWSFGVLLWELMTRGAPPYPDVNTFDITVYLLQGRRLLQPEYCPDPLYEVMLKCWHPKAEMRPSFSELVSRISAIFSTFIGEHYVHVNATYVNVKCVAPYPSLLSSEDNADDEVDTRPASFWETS

| Binder | WC ELISA (fold over background) [fold] |
| --- | --- |
| GSFTACNKTSTTRQPCNPYAP [451-B12 peptide-displaying phage (SEQ ID NO: 384)] | 1.37 |
| GSRFHCWQGDLMQTYCMPMAP [452-A03 peptide-displaying phage (SEQ ID NO: 376)] | 1.3 |
| GDLLVCKFDDKFWTETCEWADP [549-G05 peptide-displaying phage (SEQ ID NO: 392)] | 1.47 |
| GSGDPCSPGPSINGHCSVMAP [453-A05 peptide-displaying phage (SEQ ID NO: 382)] | 1.33 |
| AGGFACGPPWDICWMFGT [573-F04 peptide-displaying phage (SEQ ID NO: 011)] | 1.3 |
| GDDFHCEFIDDYQSEICYFNDP [333-C03 peptide-displaying phage (SEQ ID NO: 391)] | 1.37 |
| GDLLGCGYQEKGGEYKCRFNDP [334-F05 peptide-displaying phage (SEQ ID NO: 395)] | 1.4 |
| GSQNNCEYGSRGSSFCLAMAP [465-C06 peptide-displaying phage (SEQ ID NO: 377)] | 1.23 |
| GSSQICAVYLDDTHNCERHAP [465-A03 peptide-displaying phage (SEQ ID NO: 373)] | 1.3 |
| GSMNMCDTTDEISPTCHPSAP [441-H01 peptide-displaying phage (SEQ ID NO: 378)] | 1.4 |
| GDSYNCSWDSKTFEVTCLYADP [546-B01 peptide-displaying phage (SEQ ID NO: 393)] | 1.2 |
| GSLYRCLGEASPTPPCAYEAP [445-G12 peptide-displaying phage (SEQ ID NO: 380)] | 1.37 |
| GSTMSCWRWGRDAYSCNQMAP [557-A12 peptide-displaying phage (SEQ ID NO: 372)] | 1.37 |

The binders below were run against T1, cMet-Fc fusion protein (extracellular …) (assay: phage ELISA on cMet-Fc, competitor HGF 100 ng/mL).
In short: (§1)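 Plates coated with 0.5 μg/mL cMet-Fc, with TRAIL-Fc as background, then blocked with 3% BSA. Bound phage detected with HRP anti-M13 antibody.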

| Binder | % of binding in the absence of HGF [%] |
| --- | --- |
| GSFTACNKTSTTRQPCNPYAP [451-B12 peptide-displaying phage (SEQ ID NO: 384)] | 61 |
| GSRFHCWQGDLMQTYCMPMAP [452-A03 peptide-displaying phage (SEQ ID NO: 376)] | 140 |
| GDLLVCKFDDKFWTETCEWADP [549-G05 peptide-displaying phage (SEQ ID NO: 392)] | 28 |
| GSGDPCSPGPSINGHCSVMAP [453-A05 peptide-displaying phage (SEQ ID NO: 382)] | 51 |
| AGGFACGPPWDICWMFGT [573-F04 peptide-displaying phage (SEQ ID NO: 011)] | 76 |
| GDDFHCEFIDDYQSEICYFNDP [333-C03 peptide-displaying phage (SEQ ID NO: 391)] | 52 |
| GDLLGCGYQEKGGEYKCRFNDP [334-F05 peptide-displaying phage (SEQ ID NO: 395)] | 58 |
| GSQNNCEYGSRGSSFCLAMAP [465-C06 peptide-displaying phage (SEQ ID NO: 377)] | 184 |
| GSSQICAVYLDDTHNCERHAP [465-A03 peptide-displaying phage (SEQ ID NO: 373)] | 33 |
| GSMNMCDTTDEISPTCHPSAP [441-H01 peptide-displaying phage (SEQ ID NO: 378)] | 91 |
| GDSYNCSWDSKTFEVTCLYADP [546-B01 peptide-displaying phage (SEQ ID NO: 393)] | 95 |
| GSLYRCLGEASPTPPCAYEAP [445-G12 peptide-displaying phage (SEQ ID NO: 380)] | 85 |
| GSTMSCWRWGRDAYSCNQMAP [557-A12 peptide-displaying phage (SEQ ID NO: 372)] | 87 |

What follows are binders tested against T1, cMet-Fc fusion protein (extracellular …) (assay: phage ELISA on cMet-Fc, competitor HGF 500 ng/mL).
In short: as §1

| Binder | % of binding in the absence of HGF [%] |
| --- | --- |
| GSFTACNKTSTTRQPCNPYAP [451-B12 peptide-displaying phage (SEQ ID NO: 384)] | 27 |
| GSRFHCWQGDLMQTYCMPMAP [452-A03 peptide-displaying phage (SEQ ID NO: 376)] | 112 |
| GDLLVCKFDDKFWTETCEWADP [549-G05 peptide-displaying phage (SEQ ID NO: 392)] | 21 |
| GSGDPCSPGPSINGHCSVMAP [453-A05 peptide-displaying phage (SEQ ID NO: 382)] | 28 |
| AGGFACGPPWDICWMFGT [573-F04 peptide-displaying phage (SEQ ID NO: 011)] | 71 |
| GDDFHCEFIDDYQSEICYFNDP [333-C03 peptide-displaying phage (SEQ ID NO: 391)] | 43 |
| GDLLGCGYQEKGGEYKCRFNDP [334-F05 peptide-displaying phage (SEQ ID NO: 395)] | 29 |
| GSQNNCEYGSRGSSFCLAMAP [465-C06 peptide-displaying phage (SEQ ID NO: 377)] | 104 |
| GSSQICAVYLDDTHNCERHAP [465-A03 peptide-displaying phage (SEQ ID NO: 373)] | 17 |
| GSMNMCDTTDEISPTCHPSAP [441-H01 peptide-displaying phage (SEQ ID NO: 378)] | 69 |
| GDSYNCSWDSKTFEVTCLYADP [546-B01 peptide-displaying phage (SEQ ID NO: 393)] | 77 |
| GSLYRCLGEASPTPPCAYEAP [445-G12 peptide-displaying phage (SEQ ID NO: 380)] | 52 |
| GSTMSCWRWGRDAYSCNQMAP [557-A12 peptide-displaying phage (SEQ ID NO: 372)] | 62 |
